Measurements from the supplement of paper PMC12042874.
± gives the uncertainty stated by the source.

assay: amyloid nucleation score (Sup35N fusion, yeast selection) (log enrichment); library NNK1; higher = more nucleation; inactive = no reads after selection
Summary of the method: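 DiMSum was used to calculate nucleation scores as log enrichment of output over input reads, centred on the mode score of non-aggregating sequences. Sequences with fewer than 100 input reads were not scored. Input and output came from Illumina sequencing of plasmid inserts in psi-negative yeast expressing peptides of 20 random codons fused to Sup35N, induced 24 hours with 100 μM copper sulfate and then grown 7 days at 30°C on medium lacking adenine and uracil.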

**Q.** With SARYL as the substance, how does the amyloid nucleation score read?
**A.** 0.496 ± 0.7

**Q.** For LFFHL, which amyloid nucleation score is on record?
**A.** 0.83 ± 0.79

**Q.** For MNFCYLCTTWWSYYFQ, which amyloid nucleation score is on record?
**A.** -0.38 ± 0.32

**Q.** For CSSRVRMTRQLVKLVNICMR, which amyloid nucleation score is on record?
**A.** -0.122 ± 0.97

**Q.** Which amyloid nucleation score does the source give for LLFSPIFLDSGPHTLWLYMF here?
**A.** 0.491 ± 0.87

**Q.** For FALGCF, which amyloid nucleation score is on record?
**A.** -0.079 ± 0.36

**Q.** With AIEPHDGFWGVWSTLGVILI as the substance, how does the amyloid nucleation score read?
**A.** 1.32 ± 0.93

**Q.** Which amyloid nucleation score does the source give for YFSVHF here?
**A.** 2.29 ± 0.15

**Q.** Which amyloid nucleation score does the source give for GRLVVGIREGIIS here?
**A.** 0.058 ± 0.35

**Q.** For AHYRV, which amyloid nucleation score is on record?
**A.** 0.014 ± 0.48

**Q.** For HSLSFTNVVDTSLPLVLANF, which amyloid nucleation score is on record?
**A.** -2.15 ± 2.4

**Q.** With EVRRFMTPGENESSREVAYF as the substance, how does the amyloid nucleation score read?
**A.** -0.02 ± 0.45

**Q.** With TSSYGCQHINVMCCRLQGDL as the substance, how does the amyloid nucleation score read?
**A.** 7.444 ± 0.074

**Q.** For VIRCRKFRTVWILFLAISLV, which amyloid nucleation score is on record?
**A.** inactive

**Q.** For KLSFK, which amyloid nucleation score is on record?
**A.** -0.227 ± 1.9

**Q.** With DCLRILDGQYRRRIDRALRV as the substance, how does the amyloid nucleation score read?
**A.** 0.09 ± 0.7

**Q.** Which amyloid nucleation score does the source give for TFVVN here?
**A.** 0.677 ± 0.3

**Q.** For ISVVLWYDRALARCPSPDAP, which amyloid nucleation score is on record?
**A.** 0.764 ± 0.49

**Q.** Which amyloid nucleation score does the source give for AIFFGGIGKVCVKLVLCVRL here?
**A.** 0.248 ± 0.27

**Q.** With EICMRPY as the substance, how does the amyloid nucleation score read?
**A.** -0.081 ± 1.1

**Q.** Which amyloid nucleation score does the source give for SVVSFINLIASYFRELVGAV here?
**A.** 0.225 ± 0.95

**Q.** Which amyloid nucleation score does the source give for LHGPVFYKFACVVASPWGSI here?
**A.** -0.235 ± 0.41

**Q.** With SEMSLSRDSCLLSIV as the substance, how does the amyloid nucleation score read?
**A.** 0.141 ± 0.18

**Q.** Which amyloid nucleation score does the source give for RDFYCFWLG here?
**A.** 4.05 ± 0.08

**Q.** With IYRLDTI as the substance, how does the amyloid nucleation score read?
**A.** -0.864 ± 0.75

**Q.** For KAFATMLNRLEVGTLGRG, which amyloid nucleation score is on record?
**A.** -1.36 ± 1.9

**Q.** Which amyloid nucleation score does the source give for NHCFLVRWNISKSSRDVSWC here?
**A.** 0.142 ± 0.47

**Q.** With LGGFSMRVNEVVLPGVRFGD as the substance, how does the amyloid nucleation score read?
**A.** -0.037 ± 1.7

**Q.** With LFYCRALRYFASHLDASNMH as the substance, how does the amyloid nucleation score read?
**A.** -1.09 ± 0.84

**Q.** With ISVKHKFPGANSSVRWDRFW as the substance, how does the amyloid nucleation score read?
**A.** 3.47 ± 0.11

**Q.** With FDDCFSLLIVPDSTVITKEQ as the substance, how does the amyloid nucleation score read?
**A.** 0.444 ± 0.4

**Q.** For SYHSMA, which amyloid nucleation score is on record?
**A.** inactive

**Q.** For YSLMLFESVSSGFKCSLRFA, which amyloid nucleation score is on record?
**A.** -0.65 ± 0.42

**Q.** Which amyloid nucleation score does the source give for PRVIELARLVRLRKTKVYML here?
**A.** -0.013 ± 0.24

**Q.** For ATFSFGRT, which amyloid nucleation score is on record?
**A.** inactive

**Q.** For RSQNLGGVFGET, which amyloid nucleation score is on record?
**A.** -0.066 ± 0.41

**Q.** For RSTGTGTICV, which amyloid nucleation score is on record?
**A.** inactive

**Q.** For YFAPFRGTSWFTRSCN, which amyloid nucleation score is on record?
**A.** -0.011 ± 0.79

**Q.** For YSNWTVSTSFSNHERHVFLA, which amyloid nucleation score is on record?
**A.** 0.839 ± 0.39

**Q.** Which amyloid nucleation score does the source give for YAVRYFETVVLQGIEVIPES here?
**A.** 0.205 ± 0.6

**Q.** With VSCWRTVRTAF as the substance, how does the amyloid nucleation score read?
**A.** 0.893 ± 0.59

**Q.** For PICCLLQLLGDSGWMCCSAW, which amyloid nucleation score is on record?
**A.** 6.538 ± 0.061

**Q.** With FCFMWGYMVRVIV as the substance, how does the amyloid nucleation score read?
**A.** inactive

**Q.** With RTSPN as the substance, how does the amyloid nucleation score read?
**A.** -0.141 ± 0.37

**Q.** With MCVLYMGGSFRF as the substance, how does the amyloid nucleation score read?
**A.** 1.58 ± 0.44

**Q.** Which amyloid nucleation score does the source give for KGNRGQ here?
**A.** inactive

**Q.** With VFTSAD as the substance, how does the amyloid nucleation score read?
**A.** 0.093 ± 0.39

**Q.** For FNDFSLSYARFCINSMNRYP, which amyloid nucleation score is on record?
**A.** 0.968 ± 0.13

**Q.** For WCRRWFLLYWVCAETKFGSG, which amyloid nucleation score is on record?
**A.** -0.367 ± 0.52

**Q.** With FTSAASQFRVMSGQSNSKYP as the substance, how does the amyloid nucleation score read?
**A.** -1.2 ± 2.4

**Q.** For VVNWIASMGCIFYRVPNVSG, which amyloid nucleation score is on record?
**A.** 4.66 ± 0.13

**Q.** With CDNDSMWGYCLTTRMGRFTA as the substance, how does the amyloid nucleation score read?
**A.** -0.379 ± 0.59

**Q.** For AFSANF, which amyloid nucleation score is on record?
**A.** 0.779 ± 0.42

**Q.** Which amyloid nucleation score does the source give for CIRVWCLILSRSWGFTPANC here?
**A.** 1.18 ± 0.9

**Q.** For PGVECACRVSNATNVDGLDL, which amyloid nucleation score is on record?
**A.** -0.168 ± 0.5

**Q.** With GLNALSFNQV as the substance, how does the amyloid nucleation score read?
**A.** -0.383 ± 0.48

**Q.** For ADDACVSET, which amyloid nucleation score is on record?
**A.** inactive

**Q.** Which amyloid nucleation score does the source give for LGRKFT here?
**A.** 2.05 ± 0.41

**Q.** With NFGAQRYHSRLLL as the substance, how does the amyloid nucleation score read?
**A.** -0.223 ± 0.59

**Q.** Which amyloid nucleation score does the source give for NVILKDLQVYPEKAVSINRY here?
**A.** 1.05 ± 0.32

**Q.** Which amyloid nucleation score does the source give for AGWYASW here?
**A.** 0.142 ± 0.74

**Q.** For LGHIILSAFFYRSFNLEVSL, which amyloid nucleation score is on record?
**A.** inactive

**Q.** Which amyloid nucleation score does the source give for KPEFVNWIC here?
**A.** 0.083 ± 0.32

**Q.** Which amyloid nucleation score does the source give for SNDVAFMAIKKHRTLSYQTD here?
**A.** 0.165 ± 0.47

**Q.** Which amyloid nucleation score does the source give for LLDRRVGKLGLDCMLLDLCQ here?
**A.** 0.752 ± 0.42

**Q.** Which amyloid nucleation score does the source give for GRSRTRTRLLPGSEGGYDRP here?
**A.** -1.64 ± 0.98

**Q.** Which amyloid nucleation score does the source give for TVQWAEN here?
**A.** 0.292 ± 0.63

**Q.** Which amyloid nucleation score does the source give for YLMFFVYCVRLRYLSWALSQ here?
**A.** -1.35 ± 1.9

**Q.** For LGPYQTCR, which amyloid nucleation score is on record?
**A.** 1.58 ± 0.72

**Q.** For HSLGLANYFTSHEGLVGTF, which amyloid nucleation score is on record?
**A.** inactive

**Q.** Which amyloid nucleation score does the source give for LTYLMWRRYSNIFQTSCSCL here?
**A.** 0.499 ± 0.59

**Q.** With ERLHMLLAKCIHVGETRHLN as the substance, how does the amyloid nucleation score read?
**A.** 0.194 ± 0.66

**Q.** Which amyloid nucleation score does the source give for WSGFFFAGLWVVLCVEGGAC here?
**A.** 0.192 ± 0.88

**Q.** With VNRGVVVRITWIAKHYCMSE as the substance, how does the amyloid nucleation score read?
**A.** 0.26 ± 0.38

**Q.** For YLRRSGMLAFSSSHHR, which amyloid nucleation score is on record?
**A.** 1.15 ± 0.4

**Q.** Which amyloid nucleation score does the source give for WSPNNTISNGMTKVWASGRL here?
**A.** 0.78 ± 0.56

**Q.** With TSLVVYYTSWV as the substance, how does the amyloid nucleation score read?
**A.** -1.55 ± 2.4

**Q.** Which amyloid nucleation score does the source give for MYSLVCNHCAQSISIPSRWS here?
**A.** 3.97 ± 0.11

**Q.** Which amyloid nucleation score does the source give for CSRNDTVHATINMWDNSATA here?
**A.** -0.07 ± 0.41

**Q.** For DFSLSSPRFLFGDGCRNCNA, which amyloid nucleation score is on record?
**A.** -0.028 ± 0.36

**Q.** With SYLGCVHWSRRTDLVTFFDF as the substance, how does the amyloid nucleation score read?
**A.** 0.495 ± 0.27

**Q.** For ISHKQITTDSSNTVRVYGGN, which amyloid nucleation score is on record?
**A.** -0.122 ± 1.6

**Q.** Which amyloid nucleation score does the source give for KVFINVYIKRQRNKCRRSNR here?
**A.** 5.899 ± 0.054

**Q.** For TFPGEWHWERTIVIVPNFFH, which amyloid nucleation score is on record?
**A.** 2.03 ± 0.15

**Q.** For VRVISLEVLGYFCPRRLAGA, which amyloid nucleation score is on record?
**A.** inactive

**Q.** For WYGVFALMIGRSIFD, which amyloid nucleation score is on record?
**A.** -0.027 ± 0.27

**Q.** With KCFSGYWVLARLRVKFLRVG as the substance, how does the amyloid nucleation score read?
**A.** -0.275 ± 0.53
